Experimental data as given in the supplement of paper PMC10266784.

B1: library; numbered along this chain (parent)
chain: MAAAAAAAAEQQSSNGPVKKSMREKAVERRSVNKEHNSNFKAGYIPIDEDRLHKTGLRGRKGNLAICVIILLFILAVINLIITLVIWAVIRIGPNGCDSMEFHESGLLRFKQVSDMGVIHPLYKSTVGGRRNENLVITGNNQPIVFQQGTTKLSVENNKTSITSDIGMQFFDPRTQNILFSTDYETHEFHLPSGVKSLNVQKASTERITSNATSDLNIKVDGRAIVRGNEGVFIMGKTIEFHMGGNMELKAENSIILNGSVMVSTTRLPSSSSGDQLGSGDWVRYKLCMCADGTLFKVQVTSQNMGCQISDNPCGNTH

Variants of: B1
Assay: SGCB cell-surface expression functional score (HA stain, bin4 vs bin1, normalised to synonymous) (log10 ratio); higher = more cell-surface SGCB (functional)
Outline: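 Human beta-sarcoglycan, tagged with HA and fused to YFP, was built into codon-saturation libraries and delivered by lentivirus at MOI <0.1 into HEK293 cells that stably express alpha-, gamma- and delta-sarcoglycan. After 72 hours, YFP-positive cells were sorted and grown for 5–7 days, then stained on ice with Alexa Fluor 647 anti-HA, fixed, sorted into four 5% intensity bins and amplicon-sequenced. Each variant's functional score is the log ratio of its frequency in the highest bin to that in the lowest bin, taken as the median across codons and transductions. Transductions were done in duplicate, and synonymous variants were scaled per section to mean 0, SD 0.5.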

Variant | SGCB cell-surface expression functional score (log10)
D281C | -1.63
D281E | 0.11
D281K | 0.25
D281M | 0.67
D281T | -0.28
D281H | -1.11
D281F | 0.45
D281I | -0.27
D281S | -0.22
D281V | -0.16
D281Y | 0.16
D281L | 0.08
D281R | -0.24
D281W | -1.51
D281G | -0.06
D281N | 0.25
D281Q | 0.18
D281A | -0.2
D281P | -0.06
W282Q | 0.08
W282H | 0.22
W282K | -0.08
W282I | 0.19
W282Y | -0.08

Variant | SGCB cell-surface expression functional score (log10)
W282V | 0.04
W282S | -0.06
W282C | -0.37
W282L | 0.08
W282T | -0.1
W282D | -0.17
W282A | 0.11
W282R | 0.12
W282N | 0.08
W282G | 0.21
W282M | -0.29
W282F | 0.36
W282E | -0.07
W282P | 0.15
G280L | -0.28
G280M | 0.03
G280H | 0.05
G280A | -0.01
G280I | 0.26
G280F | 0.08
G280C | -0.75
G280K | 0.07
G280Q | -0.26
G280N | 0.37

Variant | SGCB cell-surface expression functional score (log10)
G280P | 0.06
G280Y | -0.23
G280S | 0.11
G280T | -0.11
G280V | 0.01
G280D | -0.56
G280W | -0.37
G280E | 0.02
G280R | -0.45
P269T | 0.41
P269Y | 0.73
P269W | 0.56
P269V | 0
V283L | 0.37
V283Y | -0.55
V283S | -0.34
V283I | 0.38
V283G | 0.12
V283N | 0.35
V283T | -0.38
V283Q | -0.56
V283E | 0.19
V283D | -0.63
V283K | 0.04

Variant | SGCB cell-surface expression functional score (log10)
V283H | -0.24
V283M | 0.74
V283P | -0.19
V283C | 0.36
V283W | -1.26
V283F | -0.17
V283A | -0.15
V283R | -0.21
S279N | 0.15
S279C | 0.08
S279A | 0.39
S279Q | -0.19
S279H | -0.04
S279M | 0.56
S279V | 0.21
S279D | 0.24
S279R | 0.16
S279T | 0.09
S279P | 0.24
S279W | -0.2
S279K | -0.05
S279G | -0.07
S279L | 0.22
S279E | 0.22

Variant | SGCB cell-surface expression functional score (log10)
S279I | -0.06
S279Y | 0.05
S279F | -0.13
S270C | -0.02
S270E | -0.45
S270G | 0.32
S270A | 0.44
S270M | 0.77
S270H | 0.54
S270T | 0.45
S270V | 0.24
S270I | 0.33
S270Y | 0.41
S270N | -0.08
S270F | 1.1
S270K | -0.13
S270P | 0
S270R | 0.24
S270D | 0.32
S270L | 0.64
S270Q | 0.47
L277Q | -0.65
L277H | 0.19
L277V | -0.49

Variant | SGCB cell-surface expression functional score (log10)
L277M | -0.2
L277G | -0.19
L277Y | -0.12
L277P | -1.21
L277F | -0.4
L277N | 0.08
L277C | -1.31
L277W | 0.44
L277I | 0.41
L277D | -0.09
L277A | -0.39
L277T | 0.24
L277S | -0.88
L277E | 0.02
L277R | -0.27
L277K | -1.8
S271N | 0.21
S271K | 0.11
S271L | 0.07
S271T | 0.3
S271A | 0
S271F | 0.35
S271V | 0.17
S271I | -0.19

Variant | SGCB cell-surface expression functional score (log10)
S271G | 0.33
S271W | -0.22
S271M | -0.03
S271H | -0.19
S271D | -0.12
S271Q | -0.08
S271E | -0.22
S271C | -0.06
S271P | -0.56
S271R | -0.24
S271Y | -0.26
S272A | 0.37
S272H | -0.05
S272E | 0.23
S272R | 0.18
S272D | -0.3
S272T | -0.52
S272C | -0.03
S272G | 0.1
S272L | 0.07
S272Y | -0.29
S272F | 0.1
S272V | -0.14
S272W | -0.13

Variant | SGCB cell-surface expression functional score (log10)
S272P | 0.21
S272M | -1.59
S272K | 0.11
S272I | 0.34
S272Q | 0.34
S272N | 0.08
L287H | -0.31
L287A | -0.96
L287F | -0.14
L287D | -0.88
L287E | -0.2
L287I | 0.07
L287C | 0.06
L287G | -0.84
Q276P | -0.4
Q276N | -0.22
Q276S | -0.37
Q276V | -0.56
Q276F | -0.23
Q276M | 0.2
Q276D | 0.34
Q276A | -0.49
Q276E | 0.14
Q276C | -1

Variant | SGCB cell-surface expression functional score (log10)
Q276R | -0.17
Q276G | 0.24
Q276L | -0.3
Q276W | -1.29
Q276Y | 0.02
Q276T | -1.1
Q276K | 0.11
Q276I | 0.1
Q276H | -0.07
S273A | -0.68
S273I | 0.05
S273W | 0.09
S273E | 0.08
S273H | -0.82
S273M | -1.46
S273L | -0.2
S273R | -0.14
S273G | -0.18
S273Y | 0.11
S273T | -0.52
S273D | -0.07
S273Q | -0.2
S273F | -1.31
S273C | -0.58

Variant | SGCB cell-surface expression functional score (log10)
S273N | 0.34
S273K | -0.55
S273V | -0.79
S273P | -0.33
Y285Q | -0.54
Y285S | -0.49
Y285W | 0.09
Y285V | -0.66
Y285P | -0.24
Y285A | -0.68
Y285M | -2.09
Y285I | -1.22
Y285N | -0.74
Y285G | -0.29
Y285C | -0.68
Y285K | -0.76
Y285T | -1.86
Y285F | -0.2
Y285L | -0.66
Y285E | -2.12
Y285D | -0.09
Y285R | -1.05
Y285H | -0.04
G278T | 0.14

Variant | SGCB cell-surface expression functional score (log10)
G278W | 0.16
G278S | 0.15
G278P | 0.23
G278C | 0.13
G278Q | 0.09
G278A | 0.15
G278K | 0.27
G278H | -0.29
G278E | 0.27
G278D | 0.31
G278M | 0.18
G278N | 0.05
G278Y | 0.08
G278F | 0.12
G278V | 0.32
G278L | -0.05
G278I | 0.08
G278R | 0.05
K286A | -0.54
K286T | -1.08
K286D | -1.17
K286V | 0.03
K286H | -1.12
K286Y | -0.08

Variant | SGCB cell-surface expression functional score (log10)
K286E | -0.77
K286N | -0.03
K286C | -1.06
K286G | -0.81
K286M | 0.29
K286I | -0.67
K286L | -0.42
K286W | -0.09
K286F | -0.07
K286R | -1
K286Q | -0.61
K286P | 0.02
K286S | -1.02
D275C | -0.13
D275H | -0.97
D275S | -0.06
D275Q | -1.58
D275P | -1.24
D275L | -0.13
D275N | -0.12
D275W | -0.16
D275V | 0.12
D275Y | 0.17
D275G | 0.01

Variant | SGCB cell-surface expression functional score (log10)
D275F | -0.57
D275M | 0.18
D275I | -0.42
D275T | -0.08
D275R | -0.53
D275E | -0.21
D275A | -0.05
D275K | -0.82
R284H | 0.16
R284T | -0.97
R284I | -0.39
R284Y | 0.27
R284K | -0.73
R284S | -0.16
R284M | 0.28
R284G | -0.11
R284D | -1.55
R284C | 0.03
R284N | -2.05
R284V | -1.16
R284F | -0.51
R284W | 0.31
R284P | -0.73
R284A | 0.33

Variant | SGCB cell-surface expression functional score (log10)
R284L | -0.57
R284E | -1.26
R284Q | 0.05
G274W | -0.13
G274T | 0.16
G274R | -0.37
G274N | -0.16
G274I | 0.31
G274H | -1.17
G274C | -0.61
G274Y | 0.47
G274K | -0.77
G274Q | -0.28
G274D | -0.37
G274M | -0.11
G274V | -0.14
G274P | -0.32
G274S | 0.17
G274F | -0.16
G274A | -0.37
G274E | -0.62
G274L | 0.03
